The values that follow come from patent US20120288507A1 (Amgen, published 2012).

Residue numbers refer to the chain shown, from its start.

In assay [1] the target is T1, human WISE N112A (human, UniProt Q6X4U4 24-206).
T1 construct: Alanine mutant of loop 2, used as supernatant of transiently transfected mammalian cells
T1 chain: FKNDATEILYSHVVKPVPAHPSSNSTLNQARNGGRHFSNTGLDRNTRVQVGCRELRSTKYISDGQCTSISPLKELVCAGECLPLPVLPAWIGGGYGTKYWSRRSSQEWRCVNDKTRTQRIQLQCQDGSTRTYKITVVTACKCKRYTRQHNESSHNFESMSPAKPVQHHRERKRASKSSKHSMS
Nature of the assay: capture ELISA, WISE mutant supernatant (FIG. 25). The protocol:
(§1) Relative capture of individual WISE mutant proteins or wild type proteins by either neutralizing antibodies or non-neutralizing antibodies was compared to assess whether any of these single amino acid changes affects the binding of an antibody to WISE protein. The bound WISE proteins were then detected using HRP-conjugated affinity-purified polyclonal antibody against WISE.
(§2) Purified anti-WISE antibodies (0.5 ug/ml) were added onto high-binding ELISA plates pre-coated with 1 ug/ml of goat anti-mouse IgG Fc (Pierce). Plates were incubated for 1 hour in room temperature. Plates were then washed 4× with Wash Buffer. Subsequently alanine scanned WISE loop-2 mutant supernatants from transient transfection cultures (100× diluted) were added and incubated for 1 hour in room temperature. After 4× wash, rabbit anti-WISE Pab-biotin (50 ng/ml)+NeutrAvidin-HRP (Pierce, Cat #31001) were added onto the plates and incubated for 1 hour in room temperature. Plates were again washed 4× with Wash Buffer. Binding was analyzed using 1-Step Ultra TMB-ELISA substrate (Pierce; Cat #34028) according to the manufacturer's instructions.

Assay [2] addresses T2, human WISE I114A (human, UniProt Q6X4U4 24-206).
T2 construct: Alanine mutant of loop 2, used as supernatant of transiently transfected mammalian cells
T2 chain: T1 chain with A89N, I91A
Nature of the assay: capture ELISA, WISE mutant supernatant (FIG. 25). The protocol: as §1, §2
On the technique in general: ELISA stands for enzyme-linked immunosorbent assay.

Assay [3] has as its target T3, human WISE G115A (human, UniProt Q6X4U4 24-206).
T3 construct: Alanine mutant of loop 2, used as supernatant of transiently transfected mammalian cells
T3 chain: T1 chain with A89N, G92A
Nature of the assay: capture ELISA, WISE mutant supernatant (FIG. 25). The protocol:
as §1, §2

The target in the next assay is T4, human WISE K121A (human, UniProt Q6X4U4 24-206).
T4 construct: Alanine mutant of loop 2, used as supernatant of transiently transfected mammalian cells
T4 chain: T1 chain with A89N, K98A
Nature of the assay: capture ELISA, WISE mutant supernatant (FIG. 25). The protocol:
as §1, §2

For assay [4], the target named is T5, human WISE (human, UniProt Q6X4U4 24-206).
T5 construct: Recombinant protein secreted from mammalian cells; also called hWISE; huWISE
T5 sequence: T1 chain with A89N
Nature of the assay: murine hybridoma antibodies; assay not given.

In assay [5] the target is T5, human WISE. Nature of the assay: capture ELISA binding profile (FIG. 26). The protocol:
as §1, §2

Assay [6] has as its target T1, human WISE N112A. Put plainly: capture ELISA, WISE mutant supernatant (FIG. 26). The protocol: as §1, §2
Assay [7] deals with T2, human WISE I114A. Put plainly: capture ELISA, WISE mutant supernatant (FIG. 26). As for the experimental part:
as §1, §2

The target in assay [8] is T5, human WISE. Nature of the assay: capture ELISA binding profile (FIG. 28). As for the experimental part:
as §1, §2

In the next assay the target is T6, human WISE L110A (human, UniProt Q6X4U4 24-206).
T6 construct: Alanine mutant of loop 2, used as supernatant of transiently transfected mammalian cells
T6 chain: T1 chain with L87A, A89N
Put plainly: capture ELISA, WISE mutant supernatant (FIG. 28). The protocol:
as §1, §2

Assay [9] has as its target T1, human WISE N112A. Nature of the assay: capture ELISA, WISE mutant supernatant (FIG. 28). The protocol:
as §1, §2

The target in assay [10] is T7, human WISE G117A (human, UniProt Q6X4U4 24-206).
T7 construct: Alanine mutant of loop 2, used as supernatant of transiently transfected mammalian cells
T7 chain: T1 chain with A89N, G94A
Put plainly: capture ELISA, WISE mutant supernatant (FIG. 28). The protocol: as §1, §2

For assay [11], the target named is T5, human WISE. Nature of the assay: capture ELISA binding profile (FIG. 23). As for the experimental part:
as §1, §2

Assay [12] concerns the target T3, human WISE G115A. Put plainly: capture ELISA, WISE mutant supernatant (FIG. 23). As for the experimental part: as §1, §2
Assay [13] has as its target T7, human WISE G117A. Nature of the assay: capture ELISA, WISE mutant supernatant (FIG. 23). As for the experimental part: as §1, §2
Assay [14] deals with T5, human WISE. Put plainly: capture ELISA binding profile (FIG. 24). The protocol: as §1, §2
In assay [15] the target is T3, human WISE G115A. Put plainly: capture ELISA, WISE mutant supernatant (FIG. 24). The protocol: as §1, §2
Assay [16] has as its target T7, human WISE G117A. Nature of the assay: capture ELISA, WISE mutant supernatant (FIG. 24). As for the experimental part:
as §1, §2

For assay [17], the target named is T8, biotinylated recombinant human WISE (human, UniProt Q6X4U4 24-206, biotinylated (site not stated)).
T8 construct: Same protein as m1, biotinylated; Used in the AlphaScreen with LRP6, in phage panning and on the Octet streptavidin biosensors; also called biotinylated huWise; biotinylated human WISE
T8 sequence: T1 chain with A89N
Put plainly: Octet QK, crude conditioned medium, streptavidin biosensors with biotinylated human WISE. As for the experimental part:
Affinity maturation was performed on D14 IgG2 in order to improve the inhibitory activity. Every residue in all CDRs of heavy chain (31 positions) and light chain (29 positions) was mutated by randomized mutagenesis. Seven heavy chain mutations in 5 positions and ten light chain mutations in 6 positions that improved the binding to human WISE were identified by affinity measurement on Octet QK (ForteBio) using crude condition medium samples and streptavidin Biosensors coated with biotinylated human WISE. L34, L36, H66 and H127 were four top single-residue mutants. Beneficial heavy chain mutation and light chain mutation were paired in matrix by transient transfection in 293 6E cells to yield further improved double mutants (DM, one mutation in heavy chain and one in light chain). Ten DM mutants were selected. Two best heavy chain mutations (H66 and H127) were combined by overlapping PCR. The resulted heavy chain with double mutations was paired with L34 or L36 to yield two triple mutants (TM1 and TM2).
For orientation: Biolayer interferometry detects binding as a change in optical thickness at a sensor tip.

B1: Ab-AA (antibody, V domains shown)
VH: EVQLQQSGAELVRSGASVKLSCTASGFNIKDYYIHWMKQRPEQGLEWIGWIDPENGDTESAPKFQGKATMTADTSSNTAYLHLSSLTFEDTAVYYCNAEGYGSRHWYFDVWGAGTTVTVSS
VL: DIVMSQSPSSLAVSAGEKVTMSCKSSQSLLNSRTRKNYLAWYQQKPGQSPKLLIYWASTRQSGVPDRFTGSGSGTDFTLTISSVQAEDLAVYYCKQSYNLLTFGAGTKLELK
notes: Murine monoclonal antibody purified from hybridoma; also called WISE Loop 2 Mab (Ab-AA)
For B1, the binding result with human WISE N112A [1], with human WISE I114A [2], with human WISE G115A [3], with human WISE K121A and with human WISE [4] was “binds” in each case.

B2: Ab-AH (antibody, V domains shown)
VH: B1 VH with K19R, Y32F, I34M, M37L, H82Q, F88S, Y95C, G102D, S103N, R104S
VL: B1 VL with Q61K, T69I, L101V
notes: Murine anti-WISE monoclonal antibody; also called WISE Loop 2 Mab (Ab-AH)
For the molecule B2, the binding result with human WISE [5], with human WISE N112A [6] and with human WISE I114A [7] was “binds” each time.

B3: Ab-AD (antibody, V domains shown)
VH: EVQLQQSGTVLARPGASVKMSCKASGYTFTSYWMHWVKQRPGQGLEWIVAIYPGNSDTNYNQKFKGKAKLTAVTSTSTAYMELNSLTNEDSAVYYCVRGFITAPYFDYWGQGTTLTVSS
VL: DIQMTQSPASLAASVGESITITCQASENIYFSLAWYQQKQGRSPQLLIYHAKSLEDGVPSRFSGSGSGTQYSMKINSMQPEDTATYFCKQAYDHPFTFGTGTKLEMK
notes: Murine monoclonal antibody from hybridoma
As for B3, in the assay with human WISE [4], the binding result is listed as “binds”.

B4: Ab-AF (antibody, V domains shown)
VH: QIQLVQSGPELKKPGETVKISCKASGYTFTDYSMHWVKQAPGKGLKWMGWINTETGEPTYADDFKGRFAFSLETSASTACLEINNLKNEDTATYFCSLTGYWGQGTSVTVSS
VL: DIQMTQSPASLSASVGETVTITCGASENIYGALNWYQRKQGKSPQVLIYGATNLADGMSSRFSGSGSGRQYSLKISSLHPDDVAMYYCQNVFSSPLTFGAGTKLELK
notes: Murine monoclonal antibody purified from hybridoma; also called WISE Loop 2 Mab (Ab-AF)
Turning to B4, the binding result with human WISE [8], with human WISE L110A, with human WISE N112A [9] and with human WISE G117A [10] was “binds” in each case.

B5: Ab-AI (antibody, V domains shown)
VH: QVTLKESGPGILQPSQTLSLTCSFSGFSLTTSGMGVSWIRQPSGGSLEWLAHIFWDDDKRYNPSLTSRLTISKDASRNQVFLKISSVDTADAATYYCARGGDYYSTGFGFDYWGQGTLVTVSA
VL: DIVVSQAPSSLAVSVGEKIIMSCKSSQSLLHSSNQRNYLAWYQQKPGQSPKLLISWASIRESGVPDRFTGSGSGTDFTLTISSVKTEDLAVYYCHQYYSYSTFGAGTKLELK
notes: Murine anti-WISE monoclonal antibody; also called WISE Loop 2 Mab (Ab-AI)
As to B5, the binding result with human WISE [11], with human WISE G115A [12] and with human WISE G117A [13] was “binds” in each case.

B6: Ab-AC (antibody, V domains shown)
VH: B5 VH with G10E, S76P, S85T
VL: B5 VL with Q35R, V91I, S99T
notes: Murine monoclonal antibody purified from hybridoma; also called WISE Loop 2 Mab (Ab-AC)
In the case of B6, the binding result with human WISE [14], in the assay with human WISE G115A [15] and with human WISE G117A [16] was “binds” throughout.

B7: D14 IgG2 single-residue mutant L34 (antibody, V domains shown)
VH: EVQLLESGGGLVQPGGSLRLSCAASGFTFSLYTMQWVRQAPGKGLEWVSGIGSSGGGTSYADSVKGRFTISRDNSKNTLYLQMNSLRAEDTAVYYCARGVSSWFFEYWGQGTLVTVSS
VL: QYELTQPPSVAVSPGKTASITCAGDELGGKYAAWYQQKPGQAPVLVVYDDSDRPSGIPERFSGSNSGNTATLTISRVEAGDEADYYCQVWDRSSYHVVFGGGTKLTVLG
notes: L34 is a mutant label, not a residue number; Tested as crude conditioned medium; also called L34(LC CDR1-7G)
For the molecule B7, in assay [17], the binding result is given as “binds”.

B8: D14 IgG2 single-residue mutant H127 (antibody, V domains shown)
VH: B7 VH with S102G
VL: B7 VL with G29N
notes: H127 is a mutant label, not a residue number; Tested as crude conditioned medium; also called H127(HC CDR3-4G)
Turning to B8, the binding result in assay [17] is on record as “binds”.

B9: D14 IgG2 single-residue mutant H66 (antibody, V domains shown)
VH: B7 VH with G57P
VL: B7 VL with G29N
notes: H66 is a mutant label, not a residue number; Tested as crude conditioned medium; also called H66(HC CDR2-8P)
In the case of B9, the binding result in [17] was “binds”.

B10: D14-L36 (antibody, human IgG2, lambda, V domains shown)
VH: B7 VH
VL: B7 VL with G29S
notes: Tested as crude conditioned medium; also called L36(LC CDR1-7S); LC-CDR1-7 N->S
For B10, the binding result in assay [17] is “binds”.
